According to article PMC6877725, “Identification of the periplasmic DNA receptor for natural transformation of Helicobacter pylori”:

Columns and labels:
ComH-His6 [1] = biological target: T1, ComH-His6 (Helicobacter pylori 26695, UniProt O26055 20-479); assay: MST; settings: 10 mM MgCl2, 150 mM NaCl; EMSA: 10 mM Tris-HCl pH 7.5, 50 mM KCl, ~100 mM NaCl, 0.1 mM MgCl2, 1 mM DTT, 0.1 µg/µl BSA, on ice 30 min; MST and SV-AUC (20 °C): 50 mM Tris-HCl pH 7.4 …
T1 sequence: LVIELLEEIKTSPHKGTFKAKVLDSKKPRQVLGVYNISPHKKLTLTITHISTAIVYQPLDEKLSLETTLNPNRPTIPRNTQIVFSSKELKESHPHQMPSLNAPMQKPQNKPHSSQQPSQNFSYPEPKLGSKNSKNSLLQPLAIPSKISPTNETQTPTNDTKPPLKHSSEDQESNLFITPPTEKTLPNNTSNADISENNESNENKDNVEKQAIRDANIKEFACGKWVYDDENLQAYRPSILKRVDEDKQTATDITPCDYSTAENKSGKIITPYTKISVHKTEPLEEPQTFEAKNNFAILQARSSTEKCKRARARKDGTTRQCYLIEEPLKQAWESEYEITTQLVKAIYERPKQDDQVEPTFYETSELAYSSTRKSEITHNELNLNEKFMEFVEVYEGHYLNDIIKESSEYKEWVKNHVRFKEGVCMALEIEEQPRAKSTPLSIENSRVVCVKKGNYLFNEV

ComH-NTD-His6 [2] = biological target: T2, ComH-NTD-His6 (Helicobacter pylori 26695, UniProt O26055 20-169); assay: MST; settings: 10 mM MgCl2, 150 mM NaCl; EMSA: 10 mM Tris-HCl pH 7.5, 50 mM KCl, ~100 mM NaCl, 0.1 mM MgCl2, 1 mM DTT, 0.1 µg/µl BSA, on ice 30 min; MST and SV-AUC (20 °C): 50 mM Tris-HCl pH 7.4 …
T2 sequence: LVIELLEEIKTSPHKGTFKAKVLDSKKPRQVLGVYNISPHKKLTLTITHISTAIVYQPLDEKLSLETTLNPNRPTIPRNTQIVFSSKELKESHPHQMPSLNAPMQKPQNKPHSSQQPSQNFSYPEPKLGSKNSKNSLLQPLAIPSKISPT

ComH-CTD-His6 [3] = biological target: T3, ComH-CTD-His6 (Helicobacter pylori 26695, UniProt O26055 170-479); assay: MST; settings: 10 mM MgCl2, 150 mM NaCl; EMSA: 10 mM Tris-HCl pH 7.5, 50 mM KCl, ~100 mM NaCl, 0.1 mM MgCl2, 1 mM DTT, 0.1 µg/µl BSA, on ice 30 min; MST and SV-AUC (20 °C): 50 mM Tris-HCl pH 7.4 …
T3 sequence: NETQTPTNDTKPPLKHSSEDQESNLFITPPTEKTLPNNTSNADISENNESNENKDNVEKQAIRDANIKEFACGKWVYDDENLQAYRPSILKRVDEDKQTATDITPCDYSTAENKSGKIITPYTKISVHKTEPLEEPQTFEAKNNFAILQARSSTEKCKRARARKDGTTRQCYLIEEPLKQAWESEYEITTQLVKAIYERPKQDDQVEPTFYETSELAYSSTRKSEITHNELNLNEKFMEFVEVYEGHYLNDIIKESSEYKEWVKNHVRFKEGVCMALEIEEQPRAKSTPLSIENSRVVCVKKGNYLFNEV

ComH-His6 [4] = biological target: T1, ComH-His6; assay: SV-AUC; settings: EMSA: 10 mM Tris-HCl pH 7.5, 50 mM KCl, ~100 mM NaCl, 0.1 mM MgCl2, 1 mM DTT, 0.1 µg/µl BSA, on ice 30 min; MST and SV-AUC (20 °C): 50 mM Tris-HCl pH 7.4 …
ComH-His6 [5] = biological target: T1, ComH-His6; assay: SV-AUC; settings: EMSA: 10 mM Tris-HCl pH 7.5, 50 mM KCl, ~100 mM NaCl, 0.1 mM MgCl2, 1 mM DTT, 0.1 µg/µl BSA, on ice 30 min; MST and SV-AUC (20 °C): 50 mM Tris-HCl pH 7.4 …; remark: listed apart in the source
ComH-His6 [6] = biological target: T1, ComH-His6; assay: SPR; no satisfactory fit; EMSA: 10 mM Tris-HCl pH 7.5, 50 mM KCl, ~100 mM NaCl, 0.1 mM MgCl2, 1 mM DTT, 0.1 µg/µl BSA, on ice 30 min; MST and SV-AUC (20 °C): 50 mM Tris-HCl pH 7.4, 150 mM NaCl, 10 mM MgCl2, 0.05% Tween20; SPR: PBS + 0.005% Tween20, 25 °C; settings: protein: recombinant; tags: C-terminal His6; label: 5'-biotin on strand 1; blunt
ComH-His6 [7] = biological target: T1, ComH-His6; assay: EMSA; 0.5-2 µM protein; EMSA: 10 mM Tris-HCl pH 7.5, 50 mM KCl, ~100 mM NaCl, 0.1 mM MgCl2, 1 mM DTT, 0.1 µg/µl BSA, on ice 30 min; MST and SV-AUC (20 °C): 50 mM Tris-HCl pH 7.4, 150 mM NaCl, 10 mM MgCl2, 0.05% Tween20; SPR: PBS + 0.005% Tween20, 25 °C; settings: protein: recombinant, tags: C-terminal His6
ComH-CTD-His6 [8] = biological target: T3, ComH-CTD-His6; assay: as above; settings: protein: recombinant; tags: C-terminal His6; label: 5'-Cy5 on strand 1; blunt
ComH-NTD-His6 [9] = biological target: T2, ComH-NTD-His6; assay: EMSA; basically no binding, 0.5-2 µM protein; EMSA: 10 mM Tris-HCl pH 7.5, 50 mM KCl, ~100 mM NaCl, 0.1 mM MgCl2, 1 mM DTT, 0.1 µg/µl BSA, on ice 30 min; MST and SV-AUC (20 °C): 50 mM Tris-HCl pH 7.4, 150 mM NaCl, 10 mM MgCl2, 0.05% Tween20; SPR: PBS + 0.005% Tween20, 25 °C; settings: protein: recombinant, tags: C-terminal His6
ComH-CTD-His6 [10] = biological target: T3, ComH-CTD-His6; assay: EMSA; essentially no affinity, 0.5-2 µM protein; EMSA: 10 mM Tris-HCl pH 7.5, 50 mM KCl, ~100 mM NaCl, 0.1 mM MgCl2, 1 mM DTT, 0.1 µg/µl BSA, on ice 30 min; MST and SV-AUC (20 °C): 50 mM Tris-HCl pH 7.4, 150 mM NaCl, 10 mM MgCl2, 0.05% Tween20; SPR: PBS + 0.005% Tween20, 25 °C; settings: protein: recombinant; tags: C-terminal His6; label: 5'-Cy5
[11] = label: 5'-Cy5 on strand 1, blunt

Q: Which results are given for 18 bp dsDNA-FAM?
A: Kd (ComH-His6 [1]): 50 nM; Kd (ComH-NTD-His6 [2]): > 40000 nM; Kd (ComH-CTD-His6 [3]): 3400 nM; Kd (ComH-His6 [4]): 300 nM; Kd (ComH-His6 [5]): 100 nM

B1: 50 bp dsDNA (Op249 + Op250) (dsDNA)
DNA 1: GTAGTGCTGTAGGAGAATATACGGGCTGCTCGTGTTGACAAGTACTGATG
DNA 2: CATCAGTACTTGTCAACACGAGCAGCCCGTATATTCTCCTACAGCACTAC
Q: Does B1 bind (ComH-His6 [6])?
A: Result: binds

B2: 18 bp dsDNA (Cy5-PNK1 + cPNK1) (dsDNA)
DNA 1: TAGCATCGATCAGTCCTC
DNA 2: GAGGACTGATCGATGCTA
Q: Does B2 bind (ComH-His6 [7]; [11])?
A: Result: binds

Q: Does B2 bind (ComH-CTD-His6 [8])?
A: Result: binds

Q: Does B2 bind (ComH-NTD-His6 [9]; [11])?
A: Result: no binding

Q: Does TAGCATCGATCAGTCCTC (ssDNA) [18-mer ssDNA (Cy5-PNK1)] bind (ComH-His6 [7]; label: 5'-Cy5)?
A: Result: no binding

Q: Does TAGCATCGATCAGTCCTC (ssDNA) [18-mer ssDNA (Cy5-PNK1)] bind (ComH-NTD-His6 [9]; label: 5'-Cy5)?
A: Result: no binding

Q: Does TAGCATCGATCAGTCCTC (ssDNA) [18-mer ssDNA (Cy5-PNK1)] bind (ComH-CTD-His6 [10])?
A: Result: no binding
